Data taken from patent US8962697.

How the values were obtained:
LAR-7048 = biological target: T1, LAR-7048
T1 chain: PRRICV

LAR-7047 = biological target: T2, LAR-7047
T2 chain: VFFRRQTA

LAR-7009 = biological target: T3, LAR-7009
T3 chain: PRRRRPRQITA

Row | Protein | degradation of the control peptide (LAR-7048) | degradation of the control peptide (LAR-7047) | hydrolysis of the peptide substrate, fragments by mass spectrometry (LAR-7009)
1 | Aureolysin (protein) AAATGTGKGVLGDTKDININSIDGGFSLEDLTHQGKLSAYNFNDQTGQATLITNEDENFVKDDQRAGVDANYYAKQTYDYYKNTFGRESYDNHGSPIVSLTHVNHYGGQDNRNNAAWIGDKMIYGDGDGRTFTNLSGANDVVAHELTHGVTQETANLEYKDQSGALNESFSDVFGYFVDDEDFLMGEDVYTPGKEGDALRSMSNPEQFGQPSHMKDYVYTEKDNGGVHTNSGIPNKAAYNVIQAIGKSKSEQIYYRALTEYLTSNSNFKDCKDALYQAAKDLYDEQTAEQVYEAWNEVGVE | No degradation was observed in these systems | No degradation was observed in these systems | –
2 | Matrix Metalloproteinase-9 (protein) MRTPRCGVPDLGRFQTFEGDLKWHHHNITYWIQNYSEDLPRAVIDDAFARAFALWSAVTPLTFTRVYSRDADIVIQFGVAEHGDGYPFDGKDGLLAHAFPPGPGIQGDAHFDDDELWSLGKGVVVPTRFGNADGAACHFPFIFEGRSYSACTTDGRSDGLPWCSTTANYDTDDRFGFCPSERLYTQDGNADGKPCQFPFIFQGQSYSACTTDGRSDGYRWCATTANYDRDKLFGFCPTRADSTVMGGNSAGELCVFPFTFLGKEYSTCTSEGRGDGRLWCATTSNFDSDKKWGFCPDQGYSLFLVAAHEFGHALGLDHSSVPEALMYPMYRFTEGPPLHKDDVNGIRHLYGPRPEPEPRPPTTTTPQPTAPPTVCPTGPPTVHPSERPTAGPTGPPSAGPTGPPTAGPSTATTVPLSPVDDACNVNIFDAIAEIGNQLYLFKDGKYWRFSEGRGSRPQGPFLIADKWPALPRKLDSVFEERLSKKLFFFSGRQVWVYTGASVLGPRRLDKLGLGADVAQVTGALRSGRGKMLLFSGRRLWRFDVKAQMVDPRSASEVDRMFPGVPLDTHDVFQYREKAYFCQDRFYWRVSSRSELNQVDQVGYVTYDILQCPED | No degradation was observed in these systems | No degradation was observed in these systems | Degradation of LAR-7009 ... produced specific fragment pick: 1121.66 corresponding to [..] sequence
